Patent US8822165B2, “Method for producing cAMP using chimeric olfactory receptor” (Panasonic Corporation, priority 2010, dated 2014)

Columns and labels:
Type in all cases: cell-based
HEK293T cells [1] = experiment: cAMP production by mOREG-derived receptors expressed in HEK293T cells, eugenol as agonist (Experiment 1)
Experimental: (§1) Subsequently, the HEK293T cells were transfected with the above-mentioned three plasmids by a lipofection method. The HEK293T cells were incubated for 48 hours, and the β1AR consisting of the protein represented by SEQ ID NO: 03 was expressed on the cell membrane of the HEK293T cell.
(§2) The abbreviation “IBMX” means 3-isobutyl-1-methylxanthine. The IBMX is one of the phosphodiesterase inhibitors. The IBMX stabilizes cAMP, which is unstable.
The expression was conducted similarly to that of the step 2 of the reference example 1 except that the plasmid (Rho-mOREG) was used instead of the plasmid (β1AR). In this way, the Rho-mOREG (SEQ ID NO: 34) was expressed on a cell membrane.
Based on the measured cAMP concentration, a concentration increase value was calculated in accordance with the following equation: (Concentration increase value)=(the cAMP concentration measured when the concentration of the eugenol was 300μM)−(the cAMP concentration measured when the concentration of the eugenol was 0 μM)

HEK293T cells [2] = experiment: as above; remark: listed apart in the source
HEK293T cells [3] = experiment: cAMP production by Olfr15-derived receptors expressed in HEK293T cells, cyclohexanone as agonist (Experiment 3)
Experimental: as §1, §2
The expression was conducted similarly to that of the step 2 of the reference example 1 except that the plasmid (Rho-myc-Olfr15) was used instead of the plasmid (β1AR). In this way, the Rho-myc-Olfr15 (SEQ ID NO: 58) was expressed on a cell membrane.
Instead of the eugenol aqueous solutions, the concentrations of the cAMP were measured similarly to the step 3 of the comparative example 1-1 except that cyclohexanone aqueous solutions having concentrations of 30 μM, 100 μM, 300 μM, 1000 μM, and 3000 μM were used as agonists.
The expression was conducted similarly to that of the step 2 of the reference example 1 except that the plasmid (chimeraOlfr15) was used instead of the plasmid (β1AR). In this way, the chimeraOlfr15 (SEQ ID NO: 60) was expressed on a cell membrane.
The concentrations of the cAMP were measured similarly to the step 3 of the comparative example 3-1.

HEK293T cells [4] = experiment: cAMP production by Olfr609-derived receptors expressed in HEK293T cells, vanillic acid as agonist (Experiment 4)
Experimental: as §1, §2
The expression was conducted similarly to that of the step 2 of the reference example 1 except that the plasmid (Rho-myc-Olfr609) was used instead of the plasmid (β1AR). In this way, the Rho-myc-Olfr609 (SEQ ID NO: 64) was expressed on a cell membrane.
Instead of the eugenol aqueous solutions, the concentrations of the cAMP were measured similarly to the step 3 of the comparative example 1-1 except that vanillic acid aqueous solutions having concentrations of 0.30 μM, 1 μM, 3 μM, 10 μM, and 30 μM were used as agonists.
The expression was conducted similarly to that of the step 2 of the reference example 1 except that the plasmid (chimeraOlfr609) was used instead of the plasmid (β1AR). In this way, the chimeraOlfr609 (SEQ ID NO: 69) was expressed on a cell membrane.
The concentrations of the cAMP were measured similarly to the step 3 of the comparative example 4-1.

B1: Rho-mOREG: mouse olfactory receptor for eugenol with N-terminal Rho tag (protein)
chain: MNGTEGPNFYVPFSNKTGVVMTLSDGNHSGAVFTLLGFSDYPELTIPLFLIFLTIYSITVVGNIGMIVIIRINPKLHIPMYFFLSHLSFVDFCYSSIVAPKMLVNLVTMNRGISFVGCLVQFFFFCTFVVTESFLLGVMAYDRFVAIRNPLLYTVAMSQRLCAMLVLGSYAWGVVCSLILTCSALNLSFYGFNMINHFFCEFSSLLSLSRSDTSVSQLLLFVFATFNEISTLLIILLSYVLIVVTILKMKSASGRRKAFSTCASHLTAITIFHGTILFLYCVPNSKNSRHTVKVASVFYTVVIPMLNPLIYSLRNKDVKDTVKKIIGTKVYSS
modifications: Rho-mOREG
notes: mouse olfactory receptor for eugenol with N-terminal Rho tag
- cAMP concentration (HEK293T cells [1]; eugenol 0 μM): 0.00633 pmol/µg
- concentration increase value of the cAMP (HEK293T cells [1]; eugenol 300 μM (Table 5)): 0.0018
- concentration increase value of the cAMP (HEK293T cells [2]; eugenol 30 μM): 0.0012
- concentration increase value of the cAMP (HEK293T cells [2]; eugenol 1000 μM): 0.0026

B2: chimera1: IC4 domain of the Rho-myc-mOREG is substituted with the IC4 domain of the beta-1 adrenergic receptor (protein)
chain: MNGTEGPNFYVPFSNKTGVVEQKLISEEDLEFMTLSDGNHSGAVFTLLGFSDYPELTIPLFLIFLTIYSITVVGNIGMIVIIRINPKLHIPMYFFLSHLSFVDFCYSSIVAPKMLVNLVTMNRGISFVGCLVQFFFFCTFVVTESFLLGVMAYDRFVAIRNPLLYTVAMSQRLCAMLVLGSYAWGVVCSLILTCSALNLSFYGFNMINHFFCEFSSLLSLSRSDTSVSQLLLFVFATFNEISTLLIILLSYVLIVVTILKMKSASGRRKAFSTCASHLTAITIFHGTILFLYCVPNSKNSRHTVKVASVFYTVVIPMLNPLIYSLRNKDFRKAFQRLLCCARRAACRRRAAHGDRPRASGCLARAGPPPSPGAPSDDDDDDAGATPPARLLEPWAGCNGGTTTVDSDSSLDEPGRQGFSSESKV
modifications: chimera 1
notes: IC4 domain of the Rho-myc-mOREG is substituted with the IC4 domain of the beta-1 adrenergic receptor
- concentration increase value of the cAMP (HEK293T cells [1]; eugenol 300 μM (Table 5)): 0.018
- concentration increase value compared with the other olfactory receptors derived from the mOREG (in words) (HEK293T cells [1]; eugenol 300 μM, Table 4): much greater
- concentration increase value of the cAMP (HEK293T cells [2]; eugenol 30 μM): 0.0065
- concentration increase value of the cAMP (HEK293T cells [2]; eugenol 1000 μM): 0.031
- concentration increase value of the cAMP compared with the other olfactory receptors (in words) (HEK293T cells [2]; regardless of the concentration of eugenol, Table 5): greater

B3: chimeraOlfr15: IC4 domain of the Rho-myc-Olfr15 substituted with that of the beta-1 adrenergic receptor (protein)
chain: MNGTEGPNFYVPFSNKTGVVEQKLISEEDLEFMEVDSNSSSGSFILMGVSDHPHLEIIFFAVILASYLLTLVGNLTIILLSRLDARLHTPMYFFLSNLSSLDLAFTTSSVPQMLKNLWGPDKTISYGGCVTQLYVFLWLGATECILLVVMAFDRYVAVCRPLHYMTVMNPRLCWGLAAISWLGGLGNSVIQSTFTLQLPFCGHRKVDNFLCEVPAMIKLACGDTSLNEAVLNGVCTFFTVVPVSVILVSYCFIAQAVMKIRSVEGRRKAFNTCVSHLVVVFLFYGSAIYGYLLPAKSSNQSQGKFISLFYSVVTPMVNPLIYTLRNKDFRKAFQRLLCCARRAACRRRAAHGDRPRASGCLARAGPPPSPGAPSDDDDDDAGATPPARLLEPWAGCNGGTTTVDSDSSLDEPGRQGFSSESKV
modifications: ChimeraOlfr15
notes: IC4 domain of the Rho-myc-Olfr15 substituted with that of the beta-1 adrenergic receptor
- concentration of the cAMP (HEK293T cells [3]; cyclohexanone 0 μM): 0.0282
- concentration of the cAMP (HEK293T cells [3]; cyclohexanone 30 μM): 0.0280
- concentration of the cAMP (HEK293T cells [3]; cyclohexanone 100 μM): 0.0250
- concentration of the cAMP (HEK293T cells [3]; cyclohexanone 1000 μM): 0.0290
- concentration of the cAMP (HEK293T cells [3]; cyclohexanone 3000 μM): 0.0916
- concentration of the cAMP compared with Rho-myc-olfr15 (in words) (HEK293T cells [3]; cyclohexanone, Table 7): much greater

B4: chimeraOlfr609: IC4 domain of the Rho-myc-Olfr609 substituted with that of the beta-1 adrenergic receptor (protein)
chain: MNGTEGPNFYVPFSNKTGVVEQKLISEEDLEFMSYSNHSSTSFFLTGLPGLETVYLWLSIPLCTMYIASLAGNGLILWVVKSEPSLHQPMYYFLSMLAVTDLGLSVSTLPTMLTIYMMGVSEVALDMCLAQLFFIHTFSIMESSVLLTMAFDRVVAISSPLHYATILTNPRVASLGMVILVRSIGLHIPAPIMLKKLPYCQKRHLSHSYCLHPDVMKLACTDTRINSAYGLFVVLSTLGVDSVLIVLSYGLILYTVLSIASKTERLKALNTCVSHICSVLLFYTPMIGLSMIHRFGKWASPCSRVLLSYLHFLTPPVLNPVVYTIKTKDFRKAFQRLLCCARRAACRRRAAHGDRPRASGCLARAGPPPSPGAPSDDDDDDAGATPPARLLEPWAGCNGGTTTVDSDSSLDEPGRQGFSSESKV
modifications: ChimeraOlfr 609
notes: IC4 domain of the Rho-myc-Olfr609 substituted with that of the beta-1 adrenergic receptor
- concentration of the cAMP (HEK293T cells [4]; vanillic acid 0 μM): 0.075
- concentration of the cAMP (HEK293T cells [4]; vanillic acid 0.3 μM): 0.166
- concentration of the cAMP (HEK293T cells [4]; vanillic acid 1 μM): 0.160
- concentration of the cAMP (HEK293T cells [4]; vanillic acid 3 μM): 0.192
- concentration of the cAMP (HEK293T cells [4]; vanillic acid 10 μM): 0.162
- concentration of the cAMP (HEK293T cells [4]; vanillic acid 30 μM): 0.187
- concentration of the cAMP compared with Rho-myc-Olfr609 (in words) (HEK293T cells [4]; vanillic acid, Table 8): much greater

B5: chimera2: EC1-IC1 domains of the β1AR, TM2-TM7 domains of the mOREG, IC4 domain of the β1AR (protein)
chain: MGAGALALGASEPCNLSSAAPLPDGAATAARLLVLASPPASLLPPASEGSAPLSQQWTAGMGLLLALIVLLIVVGNVLVIVAIAKTPRLQTLTNLTRPMYFFLSHLSFVDFCYSSIVAPKMLVNLVTMNRGISFVGCLVQFFFFCTFVVTESFLLGVMAYDRFVAIRNPLLYTVAMSQRLCAMLVLGSYAWGVVCSLILTCSALNLSFYGFNMINHFFCEFSSLLSLSRSDTSVSQLLLFVFATFNEISTLLIILLSYVLIVVTILKMKSASGRRKAFSTCASHLTAITIFHGTILFLYCVPNSKNSRHTVKVASVFYTVVIPMLNPLIYSLRNKSRDFRKAFQRLLCCARRAACRRRAAHGDRPRASGCLARAGPPPSPGAPSDDDDDDAGATPPARLLEPWAGCNGGTTTVDSDSSLDEPGRQGFSSESKV
modifications: chimera 2
- concentration increase value of the cAMP (HEK293T cells [1]; eugenol 300 μM minus eugenol 0 μM): 0.0002 pmol/microgram

B6: Rho-myc-Olfr15: Rho-tag, myc epitope tag and EC1-IC4 domains of the Olfr15, mouse olfactory receptor for cyclohexanone (protein)
chain: MNGTEGPNFYVPFSNKTGVVEQKLISEEDLEFMEVDSNSSSGSFILMGVSDHPHLEIIFFAVILASYLLTLVGNLTIILLSRLDARLHTPMYFFLSNLSSLDLAFTTSSVPQMLKNLWGPDKTISYGGCVTQLYVFLWLGATECILLVVMAFDRYVAVCRPLHYMTVMNPRLCWGLAAISWLGGLGNSVIQSTFTLQLPFCGHRKVDNFLCEVPAMIKLACGDTSLNEAVLNGVCTFFTVVPVSVILVSYCFIAQAVMKIRSVEGRRKAFNTCVSHLVVVFLFYGSAIYGYLLPAKSSNQSQGKFISLFYSVVTPMVNPLIYTLRNKEVKGALGRLLGKGRGAS
modifications: Rho-myc-Olfr15
- concentration of the cAMP (HEK293T cells [3]; cyclohexanone 0 μM): 0.0173
- concentration of the cAMP (HEK293T cells [3]; cyclohexanone 30 μM): 0.0180
- concentration of the cAMP (HEK293T cells [3]; cyclohexanone 100 μM): 0.0210
- concentration of the cAMP (HEK293T cells [3]; cyclohexanone 1000 μM): 0.0280
- concentration of the cAMP (HEK293T cells [3]; cyclohexanone 3000 μM): 0.0444

B7: Rho-myc-Olfr609: Rho-tag, myc epitope tag and EC1-IC4 domains of the Olfr609, mouse olfactory receptor for vanillic acid (protein)
chain: MNGTEGPNFYVPFSNKTGVVEQKLISEEDLEFMSYSNHSSTSFFLTGLPGLETVYLWLSIPLCTMYIASLAGNGLILWVVKSEPSLHQPMYYFLSMLAVTDLGLSVSTLPTMLTIYMMGVSEVALDMCLAQLFFIHTFSIMESSVLLTMAFDRVVAISSPLHYATILTNPRVASLGMVILVRSIGLHIPAPIMLKKLPYCQKRHLSHSYCLHPDVMKLACTDTRINSAYGLFVVLSTLGVDSVLIVLSYGLILYTVLSIASKTERLKALNTCVSHICSVLLFYTPMIGLSMIHRFGKWASPCSRVLLSYLHFLTPPVLNPVVYTIKTKQIRQRIWRIFRCGGRSIGHIQGH
modifications: Rho-myc-olfr609
- concentration of the cAMP (HEK293T cells [4]; vanillic acid 0 μM): 0.014
- concentration of the cAMP (HEK293T cells [4]; vanillic acid 0.3 μM): 0.070
- concentration of the cAMP (HEK293T cells [4]; vanillic acid 1 μM): 0.076
- concentration of the cAMP (HEK293T cells [4]; vanillic acid 3 μM): 0.127
- concentration of the cAMP (HEK293T cells [4]; vanillic acid 10 μM): 0.067
- concentration of the cAMP (HEK293T cells [4]; vanillic acid 30 μM): 0.071
